B1: Hammerhead Ribozyme (parent)
chain: ACCGGAUGUGCUUUCCGGUCUGAUGAGUCCGUGAGGACGAAACAG

Variants of: B1
Assay: self-cleavage, relative activity (ratio to wild type); higher = more cleavage; co-transcriptional

Variant | self-cleavage
ACCGGAUGUGCUUUCCGGUGUGAUGAGUCCGUGAGGACGAAACCG [C20G A44C] | 0.278
ACCGGAUGUGCUUUGCGGUCUGAUGAGUCCGUGAGGAUGAAACAG [C15G C38U] | 0.633
AUCGGAUGUGCUUUCCGGUCUGAUGAGUCCGUGAGGACGUAACAG [C2U A40U] | 0.346
ACCGGAUGUGCUUUCCGGUCUGAUGAGUCCGUGCGGACGGAACAG [A34C A40G] | 0.334
ACCGGAUGUGCUUUCCGGUCUGAUGAGUCCUAGAGGACGAAACAG [G31U U32A] | 0.802
ACCGCAUGUGCUUUCCGGUCUGAUCAGUCCGUGAGGACGAAACAG [G5C G25C] | 0.397
ACCGGAUGUGCUUUCCGGUCUGAUGAGUCCGUGAUGACGAACCAG [G35U A42C] | 0.384
ACCGGAUAUGCUUUCCGGUCUGAUGAGUCCGCGAGGACGAAACAG [G8A U32C] | 1.02
ACCGGAUGUGCUUUCCGGUCUGAUGAAUCCGUGAGGACGAGACAG [G27A A41G] | 0.361
ACAGGAUGUGCUUUCAGGUCUGAUGAGUCCGUGAGGACGAAACAG [C3A C16A] | 0.596
ACCGGAUGUCCUUUCCGGUCUGAUAAGUCCGUGAGGACGAAACAG [G10C G25A] | 0.368
ACCGGAUGUGCUUUCCGCUGUGAUGAGUCCGUGAGGACGAAACAG [G18C C20G] | 0.34
ACGGGAUGUGCUUUCCGGUCUGAUGAGUCCGUUAGGACGAAACAG [C3G G33U] | 0.591
ACCGGAUGUGCUUCCCGGUCUGAUGAGUCCGUGAGGACGAAAUAG [U14C C43U] | 0.337
ACCGGAUGUGCUUUCCGGUCUGAUGAGUCCAUGAGGACGAAACCG [G31A A44C] | 0.685
ACCGGAUGAGCUUUCGGGUCUGAUGAGUCCGUGAGGACGAAACAG [U9A C16G] | 0.742
ACCUGAUGUGCUUUCCGGUCUGGUGAGUCCGUGAGGACGAAACAG [G4U A23G] | 0.303
ACCGGAUGUGCUUUCCGGUCUGAUGAGUCCGGGAGGAUGAAACAG [U32G C38U] | 0.559
AACGGAUGCGCUUUCCGGUCUGAUGAGUCCGUGAGGACGAAACAG [C2A U9C] | 0.695

Variant | self-cleavage
ACCGGACGUGCUUUCCGGUCUGCUGAGUCCGUGAGGACGAAACAG [U7C A23C] | 0.356
ACCGGAUCUGCUUUCCGGUCUGAUGAGUCCCUGAGGACGAAACAG [G8C G31C] | 0.822
AGCGGAUGUGCUUUCCGUUCUGAUGAGUCCGUGAGGACGAAACAG [C2G G18U] | 0.669
ACCGGAUGAGCUUUCCGGUCUGUUGAGUCCGUGAGGACGAAACAG [U9A A23U] | 0.337
UCCGGAAGUGCUUUCCGGUCUGAUGAGUCCGUGAGGACGAAACAG [A1U U7A] | 0.588
ACCGGAUGUGCUUUCCGGUCCGAUGAAUCCGUGAGGACGAAACAG [U21C G27A] | 0.597
ACCGGAUUUGCUUCCCGGUCUGAUGAGUCCGUGAGGACGAAACAG [G8U U14C] | 1.06
ACCGGAUGUGCUUUCCGGUCAGAUGAGUCCGCGAGGACGAAACAG [U21A U32C] | 0.508
ACCGGAUGUCCUUUCCGGACUGAUGAGUCCGUGAGGACGAAACAG [G10C U19A] | 0.317
ACCGGAUCUGCUUUCCGGUCUGAUGAGUCUGUGAGGACGAAACAG [G8C C30U] | 0.981
ACAGGAUGUGCUUUCCGGUCUGAUGAGUCCGUGAGGACGUAACAG [C3A A40U] | 0.278
ACCGGAUGUGCUUUCCGAUCUGAUGAGUCCGUGACGACGAAACAG [G18A G35C] | 0.479
ACCGGAUGUGCUUUCCGGUCGGAUGAGUCCGUGAGCACGAAACAG [U21G G36C] | 0.365
ACCGGAUGUGCUUUCCGGUCUGAUGAGUCCGUGAGGAAGACACAG [C38A A41C] | 0.287
ACCGGAUGUGCUUUACGGUCUGAUGAGUUCGUGAGGACGAAACAG [C15A C29U] | 0.753
ACCGGAUGUGCUUUCCGGUCUGAUGAGUCCGUCAGGAAGAAACAG [G33C C38A] | 0.493
ACCGGAUGUGCUUUCCGGUCUGAUGAGUCGGUGAGGACGUAACAG [C30G A40U] | 0.283
ACCGGAUGUGCUUUCCGGACGGAUGAGUCCGUGAGGACGAAACAG [U19A U21G] | 0.314
ACCGGAUGUGCUUUCCGGUCUGUUGAGUCCGUGAGGACUAAACAG [A23U G39U] | 0.315

Variant | self-cleavage
ACCGGAGGUGCUUUCCAGUCUGAUGAGUCCGUGAGGACGAAACAG [U7G G17A] | 0.666
ACCGGAUGUGCUUUCCGGUCUCAUGAGUCCGUGACGACGAAACAG [G22C G35C] | 0.336
ACCGGAUGUGCUUUCCGGUCUGGUGAGUCCGUGAGGAAGAAACAG [A23G C38A] | 0.328
ACCGGAUGUGCUAUCCGGCCUGAUGAGUCCGUGAGGACGAAACAG [U13A U19C] | 0.898
ACCGGAUGUGCUUUCCGGUCUGAUGAGAGCGUGAGGACGAAACAG [U28A C29G] | 0.445
ACCAGAUGUGCUUUCCGGUCUGAUGAGUCCGUGUGGACGAAACAG [G4A A34U] | 0.49
ACCGGAUGUGCUUUCCGGUCUGAUGAGUCCGUGAGGACGAAAGGG [C43G A44G] | 0.934
ACCGGAUGUGCUUUCUGGUCUGAUGAGUCCGUGAGGAAGAAACAG [C16U C38A] | 0.73
ACCGGAUGUGUUUUCCGGUCUGAUGAGUCCGUGAGGACGAAACAC [C11U G45C] | 0.44
ACCGGAUGUGGUUUCCGGUCUGAUGAGUCCGUGAGGACGAACCAG [C11G A42C] | 0.422
AUCGGAUGUGCUUUCCGGUCUGAUGAGUCCGUCAGGACGAAACAG [C2U G33C] | 1.06
AGCGGAUGUGCUUUCCGGUCUGAUCAGUCCGUGAGGACGAAACAG [C2G G25C] | 0.267
CCCGGAUGUGCUUUCCGGUCUGAUGAGUCUGUGAGGACGAAACAG [A1C C30U] | 0.364
ACCAGAUGUGCUUUCCGGUCUGAUGAGUCCGUGAGGACGAAAGAG [G4A C43G] | 0.29
ACCCGAUGUGCUUUCCGGUCUGAUGAGUUCGUGAGGACGAAACAG [G4C C29U] | 0.567
ACCGGAUGUGCUUUCCGGUCUGAUGAGCCCGGGAGGACGAAACAG [U28C U32G] | 0.556
ACCGGAUGUGCUUUGCGGUCUGAUGACUCCGUGAGGACGAAACAG [C15G G27C] | 0.427
ACCGGAUGUGCUUUCCGGUCUGCUGAGUCCGUGAGGACGAGACAG [A23C A41G] | 0.394
ACCGGAUGUGCCUUCCGGUCUGAUGAGUCCGUGAGGACGAAACAA [U12C G45A] | 0.777

Source: the RNAGym collection of RNA variant scans (doi:10.7554/elife.80360)
